Source: publication PMC2912413

Molecular target: alternative Replication Protein A complex (RPA1, RPA4 and RPA3) (human) (UniProt P27694)
Experiment: ELISA

alternative Replication Protein A complex (RPA1, RPA4 and RPA3) (human), sequence (P27694 whole entry, chain 1 of 3): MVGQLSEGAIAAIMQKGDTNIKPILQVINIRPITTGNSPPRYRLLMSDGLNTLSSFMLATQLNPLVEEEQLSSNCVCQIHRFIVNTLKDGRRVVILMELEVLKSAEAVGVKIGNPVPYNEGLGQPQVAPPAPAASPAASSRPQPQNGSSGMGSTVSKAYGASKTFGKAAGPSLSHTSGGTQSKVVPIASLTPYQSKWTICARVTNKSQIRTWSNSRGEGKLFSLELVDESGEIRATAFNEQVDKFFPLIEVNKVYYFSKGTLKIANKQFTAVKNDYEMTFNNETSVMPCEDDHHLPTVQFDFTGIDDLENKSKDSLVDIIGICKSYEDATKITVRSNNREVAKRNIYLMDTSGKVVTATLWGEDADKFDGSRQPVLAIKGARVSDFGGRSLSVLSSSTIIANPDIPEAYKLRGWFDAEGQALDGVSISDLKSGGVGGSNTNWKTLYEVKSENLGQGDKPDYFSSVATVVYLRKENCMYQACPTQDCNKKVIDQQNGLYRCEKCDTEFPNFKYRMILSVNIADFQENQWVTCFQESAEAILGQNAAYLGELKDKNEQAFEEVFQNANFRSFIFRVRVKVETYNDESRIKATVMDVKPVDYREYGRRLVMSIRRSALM
alternative Replication Protein A complex (RPA1, RPA4 and RPA3) (human), sequence (Q13156 whole entry, chain 2 of 3, further chain): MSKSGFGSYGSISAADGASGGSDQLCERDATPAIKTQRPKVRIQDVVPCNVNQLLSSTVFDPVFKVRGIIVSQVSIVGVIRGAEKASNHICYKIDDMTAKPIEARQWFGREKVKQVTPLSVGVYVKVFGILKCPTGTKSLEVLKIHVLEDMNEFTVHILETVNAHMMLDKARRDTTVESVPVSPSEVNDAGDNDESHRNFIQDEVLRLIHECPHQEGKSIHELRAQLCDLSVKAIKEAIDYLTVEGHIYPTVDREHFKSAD
alternative Replication Protein A complex (RPA1, RPA4 and RPA3) (human), sequence (P35244 whole entry, chain 3 of 3, further chain): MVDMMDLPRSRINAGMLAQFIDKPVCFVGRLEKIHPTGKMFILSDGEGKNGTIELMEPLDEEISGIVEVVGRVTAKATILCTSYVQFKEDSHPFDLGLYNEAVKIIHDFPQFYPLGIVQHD

percent decrease of the ELISA interaction compared to RPA: 75%
Substance: human DNA polymerase α/primase complex (from UniProt P09884 1-1462; Q14181 1-598; P49643 1-509; P49642 1-420)
